According to patent publication US8653023B1, “Dual beneficial effect of dopamine enhancing and neuroprotective actions of PKC delta inhibitors for treatment of Parkinson's disease” (Iowa State University Research Foundation, Inc., priority 2006, dated 2014):

How the values were obtained:
[1] = system: N27 cells; experiment: Cellular DA and DOPAC levels in N27 cells (HPLC-EC); type: cell-based, rat; settings: N27 cells; rottlerin vs vehicle, PKCδ-DN vs LacZ
Method: (§1) PC12 cells, differentiated N27 dopaminergic cells and primary mesencephalic neurons were exposed to 1-10 μM rottlerin for the duration of the experiment. DMSO (0.01%) was used as vehicle control. PKCδ-DN- and Lac Z-expressing N27 cells were only treated with 0.01% DMSO. […] Untreated or vehicle treated cells were used as control samples.
DA and DOPAC levels in PC12, N27 cells and in brain striatal tissues were determined by high-performance liquid chromatography with electrochemical detection (HPLC-EC); samples were prepared as described previously (Kitazawa et al., 2001). The DA and DOPAC levels were measured as pg/mg protein and expressed as percent of control.

[2] = system: PP2A; experiment: PP2A phosphatase activity in N27 cells (Serine/Threonine phosphatase assay kit); type: cell-based, rat; settings: rottlerin vs DMSO, PKCδ-DN vs LacZ
Method: To determine PP2A phosphatase activity, we used the Serine/Threonine phosphatase assay kit from Promega. Briefly, N27 cells and substantia nigral tissue from mouse brain were homogenized in lysis buffer (25 mM Tris-HCl, 10 mM β-mercaptoethanol, 2 mM EDTA, protease inhibitor) supplied with the kit. After centrifugation, the supernatants were used for the assay. PP2A activity was determined by measuring the amount of free phosphate generated in a reaction by measuring the absorbance of a molybdate:malachite green: phosphate complex at 600 nm using the Spectramax plate reader (Molecular Devices). The effective range for the detection of phosphate released in this assay is 100-4,000 pmol of phosphate.

[3] = system: tyrosine hydroxylase (TH); experiment: TH-ser40 phosphorylation in primary mesencephalic neurons (immunofluorescence); type: cell-based, mouse; settings: primary neurons, 24 hr post-transfection
Method: PC12 and N27 cells were cultured as described earlier (Anantharam et al., 2002; Kaul et al., 2003). Briefly, cells were grown in RPMI 1640 medium containing 10% fetal bovine serum, 2 mM L-glutamine, 50 units of penicillin, and 50 μg/ml streptomycin. Cells were maintained in a humidified atmosphere of 5% CO2 at 37° C. N27 cells were differentiated with 2 mM dibutyryl cAMP for 3-5 days and then used for experiments described below. Primary mesencephalic neuronal cultures were prepared from the ventral mesencephalon of gestational 16-18-day-old mice embryos as described previously (Yang et al., 2004). Mesencephalic tissues were dissected and maintained in ice-cold Ca^2+-free HESS and then dissociated in HBSS solution containing trypsin-EDTA (0.25%) for 20 min at 37° C. The dissociated cells were then plated at equal density (0.5×10^6 cells) in 30-mm-diameter tissue culture wells precoated with poly-L-lysine (1 mg/ml). […]
Plasmid pPKCδ^K376R-V5 encodes the loss of function PKCδ-V5 epitope tagged mutant protein; K376R refers to the mutation of the lysine residue at position 376 to arginine in the catalytic site resulting in inactivation of the kinase. […] Transfection efficiency was >75% as determined by immunostaining of V5-expression. […]

[4] = system: tyrosine hydroxylase (TH); experiment: TH phosphorylation in N27 cells (Western blot, immunofluorescence); type: cell-based, rat
Method: as §1
Cell and brain lysates containing equal amounts of protein were loaded in each lane and separated on a 10-12% SDS-PAGE gel as described previously (Kaul et al., 2003). After the separation, proteins were transferred to nitrocellulose membrane, and nonspecific binding sites were blocked by treating with 5% nonfat dry milk powder. The membranes were then treated with primary antibodies directed against PKCδ (rabbit polyclonal or mouse monoclonal, 1:2000 dilution), TH (rabbit polyclonal or mouse monoclonal, 1:1000), phospho TH-ser40 (rabbit polyclonal, 1:1000), phospho TH-ser31 TH (rabbit polyclonal, 1:1000), or PP2A (mouse monoclonal, 1:1000). The primary antibody treatments were followed by treatment with secondary HRP-conjugated anti-rabbit or anti-mouse IgG (1:2000) for 1 hr at RT. Secondary antibody-bound proteins were detected using Amersham's ECL chemiluminescence kit. To confirm equal protein loading, blots were reprobed with a β-actin antibody (1:5000 dilution). Western blot images were captured with a Kodak 2000 MM imaging system and data were analyzed using 1D Kodak imaging analysis software.
Immunostaining of PKCδ, TH, Ser40 P-TH and Ser31 P-TH was performed in PC12, N27 and primary mesencephalic neurons. Cells were grown on poly-L-Lysine-coated glass cover slips. After treatment, the cells were fixed with 4% paraformaldehyde and processed for immunohistochemical staining. […] Then the coverslips containing stained cells were washed with PBS, mounted on a slide, and viewed under a Nikon inverted fluorescence microscope (Model TE-2000U); images were captured with a SPOT digital camera (Diagnostic Instruments, Sterling Heights, Mich.).

[5] = system: tyrosine hydroxylase (TH); experiment: TH activity (DOPA levels after NSD-1015) in N27 cells; type: cell-based, rat; settings: 2 mM NSD-1015, rottlerin 3 hr vs DMSO, PKCδ-DN vs LacZ
Method: Plasmid pPKCδ^K376R-V5 encodes the loss of function PKCδ-V5 epitope tagged mutant protein; K376R refers to the mutation of the lysine residue at position 376 to arginine in the catalytic site resulting in inactivation of the kinase. Plasmid pLacZ-V5 encodes the β-galactosidase protein alone with a V5-epitope and is used as a vector control. N27 cells stably expressing PKCδ^K376R-V5 (herein referred to as PKCδ-DN cells) and LacZ alone-expressing cells (LacZ cells) were cultured as described previously (Kitazawa et al., 2005). PKCδ-DN or LacZ expressing N27 cells were identified by immunostaining of the C-terminal V5 epitope on expressed proteins and were differentiated with cAMP analogs (e.g. dibutyral cAMP) prior to experiments. PKCδ-DN and LacZ were also transiently expressed in mouse primary mesencephalic neurons using an AMAXA® Nucleofector™ kit (AMAXA GmbH, Germany). As described above, primary mesencephalic neurons were prepared from the midbrain of 16-18-day-old mice embryos. After digestion with trypsin-EDTA-HBSS, the primary neurons were homogenously resuspended with transfection buffer provided with the kit to a final concentration of 4-5×10^6 neurons/100 μl and mixed with 1 μg plasmid DNA encoding either PKCδ-DN-V5 or LacZ-V5. […] Transfection efficiency was >75% as determined by immunostaining of V5-expression. […]

fluorescence of TH-ser40 immunostaining versus Lac-Z expressing neurons [3]: about 2.5 times
B1: PKCδ-DN: loss of function PKCδ-V5 epitope tagged mutant protein, lysine 376 to arginine, kinase inactive (protein, UniProt P28867 1-674, looked up, variant K376R)
chain: MAPFLRISFNSYELGSLQVEDEASQPFCAVKMKEALSTERGKTLVQKKPTMYPEWKTTFDAHIYEGRVIQIVLMRAAEDPVSEVTVGVSVLAERCKKNNGKAEFWLDLQPQAKVLMCVQYFLEDGDCKQSMRSEEEAKFPTMNRRGAIKQAKIHYIKNHEFIATFFGQPTFCSVCKEFVWGLNKQGYKCRQCNAAIHKKCIDKIIGRCTGTATNSRDTIFQKERFNIDMPHRFKVYNYMSPTFCDHCGSLLWGLVKQGLKCEDCGMNVHHKCREKVANLCGINQKLLAEALNQVTQRSSRKLDTTESVGIYQGFEKKPEVSGSDILDNNGTYGKIWEGSTRCTLENFTFQKVLGKGSFGKVLLAELKGKDKYFAIRCLKKDVVLIDDDVECTMVEKRVLALAWESPFLTHLICTFQTKDHLFFVMEFLNGGDLMFHIQDKGRFELYRATFYAAEIICGLQFLHSKGIIYRDLKLDNVMLDRDGHIKIADFGMCKENIFGEGRASTFCGTPDYIAPEILQGLKYSFSVDWWSFGVLLYEMLIGQSPFHGDDEDELFESIRVDTPHYPRWITKESKDIMEKLFERDPDKRLGVTGNIRIHPFFKTINWSLLEKRKVEPPFKPKVKSPSDYSNFDPEFLNEKPQLSFSDKNLIDSMDQEAFHGFSFVNPKFEQFLDI
modifications: full-length V5 epitope tag
DA level [1]: 4806±373 pg/μg protein
DOPAC levels [1]: 2783±968.31 pg/μg protein
increase in DA level [1]: 4 fold
increase in DOPAC levels [1]: 3 fold
reduction of PP2A activity [2]: 56%
THser31 phosphorylation level ([4]; N27 cells): unaltered
level of total TH ([4]; N27 cells): unaltered
fluorescent intensity of TH-ser40 immunostaining, increase versus Lac-Z ([4]; N27 cells stably expressing PKCδ-DN): 2.5 fold
TH activity [5]: 2539±307.3 pg DOPA/10^6 cells/hr
